Target: T1, HapR (Vibrio cholerae E7946 (El Tor)) (UniProt Q4F6W7)
T1 sequence: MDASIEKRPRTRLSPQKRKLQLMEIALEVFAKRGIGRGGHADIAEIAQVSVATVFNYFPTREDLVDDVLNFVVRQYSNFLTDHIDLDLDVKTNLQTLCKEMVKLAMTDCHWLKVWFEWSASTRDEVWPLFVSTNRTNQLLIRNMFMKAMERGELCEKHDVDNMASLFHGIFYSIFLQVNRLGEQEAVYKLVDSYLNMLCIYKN
Assay: EMSA
Details: 1-2 internal Cy5-dCTP incorporated by PCR

TAAGCAAACTGTAGCGTAGAAGGTTGACGAAACAAGCAATCATCTGCTAACAATGGTCCGTGTGATACCCATCATCCGGGCCATTTATTTTAGGGATATAAGACTATGAGCTACCAAGAAAAAAATGCA (double strand) [PclpP promoter probe]
binding: no binding
